Laboratory results published in patent US20220213153A1 (University of Washington, published 2022).

Columns and labels:
[1] = target: T1, D2_Wm-01B; experiment: Ni-NTA pulldown of bicistronically co-expressed components (one His-tagged), SDS-PAGE, SEC, SAXS
T1 construct: De novo designed component of the two-component D2 dihedral ring D2_Wm-01; untagged (only one component carries the 6xHis tag); also called component B of D2_Wm-01; D2-1
T1 chain: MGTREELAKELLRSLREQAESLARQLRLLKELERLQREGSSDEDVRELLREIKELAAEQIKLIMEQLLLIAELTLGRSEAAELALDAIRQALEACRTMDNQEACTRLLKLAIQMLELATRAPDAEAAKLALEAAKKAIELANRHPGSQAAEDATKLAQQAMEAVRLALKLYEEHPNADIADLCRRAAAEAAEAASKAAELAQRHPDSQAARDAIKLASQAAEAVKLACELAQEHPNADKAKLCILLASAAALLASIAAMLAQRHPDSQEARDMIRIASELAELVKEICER

[2] = target: T2, D2_Wm-02B; experiment: as above
T2 construct: De novo designed component of the two-component D2 dihedral ring D2_Wm-02; also called component B of D2_Wm-02; D2-2
T2 chain: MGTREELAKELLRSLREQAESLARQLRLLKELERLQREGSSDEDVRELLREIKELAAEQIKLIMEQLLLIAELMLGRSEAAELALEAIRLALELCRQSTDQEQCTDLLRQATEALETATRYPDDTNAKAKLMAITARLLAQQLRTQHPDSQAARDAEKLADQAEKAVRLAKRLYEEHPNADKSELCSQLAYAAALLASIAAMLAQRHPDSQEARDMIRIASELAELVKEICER

[3] = target: T3, D2_Wm-01_truncB; experiment: SEC and negative-stain EM of the two-component ring
T3 construct: D2_Wm-01B with one heptad deleted from the homodimer helices; also called component B of D2_Wm-01_trunc; D2-1_trunc
T3 chain: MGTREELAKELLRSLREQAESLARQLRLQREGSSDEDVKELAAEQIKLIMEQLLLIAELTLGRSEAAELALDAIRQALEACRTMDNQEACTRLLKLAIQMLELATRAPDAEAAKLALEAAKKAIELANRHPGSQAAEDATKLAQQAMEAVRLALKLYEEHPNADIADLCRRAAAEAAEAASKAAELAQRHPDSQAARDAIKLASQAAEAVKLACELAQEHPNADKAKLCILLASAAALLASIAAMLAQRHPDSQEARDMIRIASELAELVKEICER

B1: D2_Wm-01A (designed binder)
chain: MGTREESLKEQLRSLREQAELAARLLRLLKELERLQREGSSDEDVRELLREIKELVAEIIKLIMEQLLLIAEQLLGRSEAAELALRAIRLALELCRQSTDLEECLRLLKTAIKALENALRHPDSTTAKARLMAITARLLAQQLRTQHPDSQAARDAEKLADQAERAVRLATRLYEEHPNAEISEMCSQAAYAAALMASIAAILAQRHPDSQIARDLIRLASELAEMVKRMCERGGSWGLEHHHHHH
notes: De novo designed component of the two-component D2 dihedral ring D2_Wm-01 (8 chains in all, 2 chains as the asymmetric unit); also called component A of D2_Wm-01; D2-1
binding result [1]: binds

B2: D2_Wm-02A (designed binder)
chain: MGTREEIIRELARSLAEQAELTARLERSLREQERLQREGSSDEDVRELIREQKELVREILKLIAEQILLIAELLLASTRSEAAELALRAIRNAIEACKNADNEEMCRQLMRMAQNALELATQAPDAEAAKAALRAIDLAVELASRHPGSQAADDALKLAQQAAEAVKLALDLYREHPNADIADLCRKAAKEAAEAASKAAELAQRHPDSQAARDAIKLASQAAEAVKLACELAQEHPNAEIAKMCILAASAAALMASIAAILAQRHPDSQIARDLIRLASELAEMVKRMCERGGSWGLEHHHHHH
notes: De novo designed component of the two-component D2 dihedral ring D2_Wm-02; also called component A of D2_Wm-02; D2-2
binding result [2]: binds

B3: D2_Wm-01_truncA (designed binder)
chain: MGTREESLKEQLRSLREQAELAARLLRLQREGSSDEDVKELVAEIIKLIMEQLLLIAEQLLGRSEAAELALRAIRLALELCRQSTDLEECLRLLKTAIKALENALRHPDSTTAKARLMAITARLLAQQLRTQHPDSQAARDAEKLADQAERAVRLATRLYEEHPNAEISEMCSQAAYAAALMASIAAILAQRHPDSQIARDLIRLASELAEMVKRMCERGGSWGLEHHHHHH
notes: D2_Wm-01A with one heptad deleted from the homodimer helices; also called component A of D2_Wm-01_trunc; D2-1_trunc
binding result [3]: binds
